Assay results: the nanobody polyreactivity screen of Harvey et al. (2022)

test: yeast display, Sf9 membrane polyspecificity reagent, FACS + sequencing; frameworks hold sequencing errors
Summary of the method: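 A synthetic nanobody library was expressed on Saccharomyces cerevisiae BJ5465 by galactose induction for 36–48 hours. The library was stained for 1 hour at 4 °C with 10% biotinylated, detergent-solubilized Sf9 membrane reagent and enriched with streptavidin microbeads before FACS. Low and high (top ~1%) gates were set on anti-HA fluorescence for expression and streptavidin fluorescence for reagent binding, and each polyreactivity label reflects the gate of origin.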

| Sequence | polyreactivity (PSR sort gate) |
| --- | --- |
| QVQLVESGGGLVQAGGSRRLSCAAAGIIFYAYAMGWYRQAPGKEREFVARISRGGSTNYADSVKGRFTLSRDNAKNTVYLQMNSLKPEDTAVYYCAAYYAYLRYGGLYEYWGQGTQVTVSS | high polyreactivity |
| QVQLVESGGGLVQAGGSRRLSCAASGFTFHYYAMGWYRQAPGKERELVAVITSGGSTTYADSVKGRFTISRDNAKNTVYLQMNSLKPEDTAVYYCATDNPFLWWFRPDQHGMGYWGQGTQVTVSS | low polyreactivity |
| QVQLVESGGGLVQAGGSRRLSCAASGRFFSAYAMGWYRQAPGKDRELVAAITWSGANTDYADSVKGRFTISRDNANNTVYLQMNSLKPEDTAVYYCNASVGRDSAYDYWGQGTQVTVSS | low polyreactivity |
| QVQLVESGGGLVQAGGSRRLSCAASGRIFGWYAMGWYRQAPGKERELVAAISRGGTRTNYADSVKGRFTISRDNAKNTGYLKMNSLKPEDTAVYYCASESFYSQFDYWGQGSQVTVSS | high polyreactivity |
| QVQLVESGGGLVQAGGSRRLSCAASGRTFDFYAMGWYRQAPGKERELVAAITGADTSTYYADSVKGRFTISRDNAMNTDYLQMNSLKPEDTAVYYCASDGQWAYTVDPYVIYYRLDYWGQGTQVTVSS | low polyreactivity |
| QVQLVESGGGLVQAGGSRRLSCAASGRTFFYNAMGWYRQAPGKERELLAAISYSGGSTYYADSVKGRFTISRDNAKNTVYLQMNSLKPEDTAVYYCAARDKTRSVRRTGMDYWGQGTQVTVSS | high polyreactivity |
| QVQLVESGGGLVQAGGSRRLSCAASGRTFQYYAMGCYRQATGKERELVAAINNSGGSTYYSDSVKGRFTISRDNAKNTFYLQMNSLKQEDTAVYYCAAVSYRRHFGPYNYWGQGTQVTVSS | low polyreactivity |
| QVQLVESGGGLVQAGGSRRLSCAASGRTSTYYAMGWYRQAPGKERELVAVITRGGSTYYADSVKGRFTISRDNAKNTVYLQMNSLKPEDTAVSYCNADGRVQRKYDYWGQGTQVTVSS | high polyreactivity |
| QVQLVESGGGLVQAGGSRRLSCAASGSTFDFYVMGWYRQAPGKERELVAAIRWSGGSTYYADSVKGRFTISRDNAKNTVDLPMTRLKPEDTAVDYCPADGDHYGYSYYYGYGYWGQGTQVTVSS | high polyreactivity |
| QVQLVESGGGLVQAGGSRRLSCAASGSTFRGNAMGWYRQAPGKERELVAASTWSGDDTYYADSVKGRFTISRDNAKNTVYLQMNSLKPEDTPVSYCAADLAAFTLAVADTYDYWGQGTQVTVSS | low polyreactivity |
| QVQLVESGGGLVQAGGSRRLSCAASGSTFRGNARGRYRQAPGKERELVAAITWSGDDTYYADSVKGRFTISRDNAKNTVYIQMNSLKPEDTAVYYCAADVQPDTRSTPEMDYWGQGTQVTVSS | low polyreactivity |
| QVQLVESGGGLVQAGGSRRLSCAGSGSTVTGYAMGWYRQAPGKDRELVAAISSRGGSTYYADSVKGRFTISRDNAKTTVYLQMNSLKPEDTAGYYCATSYKSEQYHGKPFYYWGQGTQVTVSS | high polyreactivity |
| QVQLVESGGGLVQAGGSRSLSCAASGRTFTLNVMGWYRQAPGKERELVAAISTSSGRTYYADSVKGRFTISRDNAKNTVYLQMNSLKPEDTAVYYCNAVAHRQAQGDWGQGTQVTVSS | low polyreactivity |
| QVQLVESGGGLVQAGGSVRLSCAASGRIFRYYALGWYRQAPGQEREWVAGITRGGTTNYADSVKGRFTISRDNATNTVSLQMNSLKPEDTAVYYCAADTRRGIIGYDYWGQGTQVTVSS | high polyreactivity |
| QVQLVESGGGLVQAGGSVRLSCAASGSICFYAMGWYRQAPGKERELVAAISWRGGSTYYADSVKGRFTISRDNAKNTVYLQMNSLKPEDTAVYYCAKATRRYDVYTYGYWGQGTQVTVSS | high polyreactivity |
| QVQLVESGGGLVQAGGTLPLSCAATGSILGYYAMGWYRHAPGKERELVAITSGDSTYYADSVKGRFTISRDNAKNTVYLQMNSLKPEDTAVYYCAADVVRGSRYNRYGYWGQGTQVTVSS | high polyreactivity |

| Sequence | polyreactivity (PSR sort gate) |
| --- | --- |
| QVQLVESGGGLVQAGGTLRISCAASGRTFGIYAMGWSRQAPGKERELVAAITGRGGSTHYADSVKGRFTISRDNAKNTVYLQMNSLQPEDTAVYYCAADYRYNRGITSNKDYEYWGQGTQVSVSS | low polyreactivity |
| QVQLVESGGGLVQAGGTLRLSCAASGFIFGPNAMGWYRQAPGKERELVAAISWIGSSTYYADSVKGRFTISRDNAKNTVYLEMNSLKPEDTAVYYCNADLWVPSYLWGDYWGQGTQVTVSS | low polyreactivity |
| QVQLVESGGGLVQAGGTLRLSCAASGFTFGFKAMGWYRQAPGKEREFVASITYRGGSTYYADSVKGRFTISRDNAKNSVYLQMNSLKPEDTAVYFCATVSTRLRDYWGQGTQVTVSS | high polyreactivity |
| QVQLVESGGGLVQAGGTLRLSCAASGFTFNYYAMGWYRQAPGKERELFAAISSRGTGTYYADSVKGRFTISRDNAKNTVYFQMNSLKPEDTAVYYCAADWFTWSWQETRYGYWGQGTQVTVSS | high polyreactivity |
| QVQLVESGGGLVQAGGTLRLSCAASGFTYKYYGMGWYRQAPGKERELVAAITSSGSTYYADSVKGRFTISRDNAKNTVYLQMNSLKPEDTAVYYCAAEGQRWQRWRYNYWGQGTQVTVSS | high polyreactivity |
| QVQLVESGGGLVQAGGTLRLSCAASGGTFKVNAMGWYRQAPGKERELVASITGRGGSTYYADSVKGRFTISRDNAKNTVYLQMNSLKPEDTAVYYCAAAWRLGHLRFNSWGQGTQVTVSS | high polyreactivity |
| QVQLVESGGGLVQAGGTLRLSCAASGIIFGYYAMGCYRQAPGKERELVAAINSGGSTYYADSVKGRFTISRDNAKNTVYLQMNSLKPEDTAVYYCKAKLYSKYWGQGTQVTVSS | high polyreactivity |
| QVQLVESGGGLVQAGGTLRLSCAASGITFYVYAMGWYRQAPGKEREFVAAINGRGGSTYYADSVKGRFTISRDNAKNTVYLQMNSLKPEDTAVFYCAAESLAIYYKYPPYDYWGQGTQVTVSS | high polyreactivity |
| QVQLVESGGGLVQAGGTLRLSCAASGPMFTLNAMGWYRQAPGKERELVAAINRGGSTYYADSVRGRFTISRDNAKNTVYLQMNSLKPEDTAVYYCAARRRQGGHDYWGQGTQVTVSS | high polyreactivity |
| QVQLVESGGGLVQAGGTLRLSCAASGRIFRVYAMGWYRQAPGKERELVATITRGGSTYADSVKGRFTISRDNAKNTVYLQMNSLKPEDTAVYYCAADLVLGYRYDYWGQVTQVTVSS | high polyreactivity |
| QVQLVESGGGLVQAGGTLRLSCAASGRTFGTYAMGWYRQEPGKERELVAAIRSNAGSTYYADSVKGRFTISRDNAKNTVYLQMNSLKPEDTAVYYCAKSYPSSRRYNFWGQGTQVTVSS | high polyreactivity |
| QVQLVESGGGLVQAGGTLRLSCAASGRTFGWYAMGWYRQAPGKERELVASITQRGGRTYYADSVKGRFTISRDNAKNTVYLQMNSLKPEDTAVYYCAAKTSPGMYYWGQGTQVTVSS | high polyreactivity |
| QVQLVESGGGLVQAGGTLRLSCAASGRTFNGNAMGWYRQAPGKERELVAAISGGSTSYADSVKGRFTISRDNAKNTVYLQMNSLKPEDTAVYYCAATYIRRTIFRYNSWGQGTQVTVSS | low polyreactivity |
| QVQLVESGGGLVQAGGTLRLSCAASGRTLRRYAIGWYRQAPGTERELVADNSWRGTSTNYADSVKGRFTISRDNAKNTVYLQMNSLKPEDTAVYYCAAKQTYTRLHYLGPSVWDNYDYWGQGTQVTVSS | high polyreactivity |
| QVQLVESGGGLVQAGGTLRLSCAASGSIVVGNTMGWYRQAPGKERELVAAITWSGGRTYYADSVKGRFTISRDIAKNTVYLQMNSLKPEDTAVYYCAAPTYLRRGMDTYNLGYGYWGQGTQVTVSS | high polyreactivity |
